# How the values were obtained:
# [1] = molecular target: T1, KOR (Homo sapiens, UniProt P41145); assay: tethered peptide library sorting on GFP fluorescence with NGS; assay type: cell-based; details: metric: positive count
# T1 construct: Gpa1 with human Gi3 C-terminal five residues; tethered peptide display
# Source text: (§1) The first, henceforth referred to as library 1, site saturated the first four positions of the peptide, YGGF, using an NNK mutagenesis strategy (FIG. 5). This is canonically the “message” region, understood to be integral to opioid receptor signaling, with the tyrosine being particularly important. […] In creating this library, it was hoped that it could be determined how much variation is tolerated in this region, and how this might differ for opioid receptor sub-type.
# (§2) The second library, library 2, saturated the latter four residues of the peptide, LRRI (FIG. 5). This “address” region is thought to confer receptor specificity, interacting with receptor residues further up the binding pocket (Metzger et al. 2001; Xue et al. 1994; Marie-Pepin et al. 1997), but can still be important for receptor activity. It was hypothesized that more variation would be tolerated in this region, including more sub-type specific variation.
# (§3) Libraries were sorted twice on GFP fluorescence. Roughly 15 times the theoretical nucleotide complexity was sorted to ensure rare variants were assayed. […] After the second sorts, the genomes of the positive and negative populations were prepped and the library cassettes were sequenced in technical replicate using NGS at a depth of at least 1 million reads.
# (§4) Several strategies were used to both identify unique binders for receptor sub-type and identify generally preferred residues and motifs. Log proportions between the positive and negative pools were determined with a filter of-11 (FIG. 6). […] Because the libraries were sorted twice, and the fraction of cells with a GFP signal small, strong signalers were expected to be present in relatively high numbers in the positive pool.
# (§5) To incorporate both metrics, log proportions after a cut off of 500 nucleotide read counts were also determined (FIGS. 7 and 8).
# (§6) Beyond identification of general motif trends, variants unique to individual receptors were determined. For a general idea of variant specificity, plots showing receptor specificity by the log proportion metric were generated (FIGS. 12 and 13). […] Logo plots of receptor-unique variants by this metric are highlighted in FIGS. 14 and 15. To account for the noise around potentially low count variants, log proportions between positive and negative pools were determined after filtering on a minimum variant read count of 500 in the positive and negative pools. Variants that were receptor unique by this metric are highlighted in the logo plots in FIGS. 16 and 17.
# (§7) Peptide candidates for further analysis were determined by manually curating the three discussed methods (Table 1).
# (§8) For cell sorting experiments, post-transformation outgrowths were grown overnight in SD-URA/His pH 5.8 media, and cultures were passaged the following day 1:25 to minimize dead and untransformed cells. The following day the saturated cultures were washed three times in SD-URA/His pH 7.1 100 mM MOPS media without a carbon source to minimize glucose carry-over. Cultures were then diluted 1:10 their initial volume in SD-URA/His pH. 7.1 100 mM MOPS 2% galactose 0.2% glucose media and grown for 24 hours. Cells were then resuspended in an equal volume of TE pH 8.0 and 14-15 million events were sorted using a SH800S Cell Sorter (Sony) on GFP fluorescence, gated for singlets. Cells were sorted into SD-His/URA pH 5.8 media with pen/strep and grown for two days post sorting. Cultures were again washed and induced with galactose and sorted via the same parameters into positive and negative pools and grown up for 2 days. Genome extractions were performed using a Zymo Yeast Star kit.
# [2] = molecular target: T2, DOR (Homo sapiens, UniProt P41143); assay: as above; assay type: cell-based; details: metric: positive count
# T2 construct: Gpa1 with human Gi3 C-terminal five residues; tethered peptide display
# Source text: as §1, §2, §3, §4, §5, §6, §7, §8
# [3] = molecular target: T2, DOR; assay: tethered peptide agonist display, GFP reporter signaling in yeast; assay type: cell-based; details: individually cloned tethered isolates (FIG. 27)
# Method: (§9) Anchoring with Flo42 at both the N- and C-termini of the peptides was tried. Additionally, versions with and without a glycine-serine linker between the peptide and the Flo42 region were assayed (versions with linker, FIG. 19). To enable rapid screening, the tethered peptide cassette was expressed on a plasmid under the control of a constitutive promoter.
# Expression was driven by a galactose-inducible promoter, pGal1, and the construct was integrated into the yeast genome. The inducible promoter was used to control the length of peptide expression and minimize potential for unwanted selection from long-term constitutive expression. Like the tethered peptide cassette, receptors were integrated into the genome to avoid downstream issues with variable plasmid copy number and sorting (Bean et al. 2022).
# Plasmids were constructed using Golden Gate assembly of components from the Yeast Toolkit with some adaptations. Receptors were expressed on either 2μ URA3 backbones driven by the CCW12 promoter or integrated into the yeast genome using a URA3 auxotrophic marker and driven by the TDH3 promoter. Tethered peptide cassettes were expressed on either a Cen6 HIS3 backbone or integrated into the yeast genome using HIS3 auxotrophic markers and were driven by pHHF2 for plasmid-based expression, and pGal1 for integrated expression. Oligos were ordered as gblocks or single stranded DNA from IDT.
# [4] = molecular target: T3, MOR (Homo sapiens, UniProt P35372); assay: tethered peptide library sorting on GFP fluorescence with NGS; assay type: cell-based; details: metric: positive count
# T3 construct: Gpa1/Gi3 chimeric G alpha; exogenous or tethered peptides
# Source text: as §1, §2, §3, §4, §5, §6, §7, §8
# [5] = tested on: HsDOR; details: previously tested in yeast (Uddin et al. 2016); cited from earlier work
# [6] = tested on: human opioid receptors; assay: tethered peptide orientations and controls, GFP reporter signaling in yeast; assay type: cell-based; details: pGal1, integrated; FIG. 20 (cholesterol-producing strain CJM263)
# Method: as §9, with “Due to the limited application and efficacy of activating human GPCRs via this strategy, several tethering orientations for the dynorphin peptides were attempted. Anchoring” for “Anchoring”
# This optimized tethering orientation was then assayed in the context to be used for library peptide display. Expression was driven by a galactose-inducible promoter, pGal1, and the construct was integrated into the yeast genome. The inducible promoter was used to control the length of peptide expression and minimize potential for unwanted selection from long-term constitutive expression. Like the tethered peptide cassette, receptors were integrated into the genome to avoid downstream issues with variable plasmid copy number and sorting (Bean et al. 2022). […] It was decided to screen MOR with the peptide libraries to determine if there were any variations that could rescue function, with the hypothesis that the sequence space assayed would likely contain variants capable of activating the receptor. […]
# T3 sequence (P35372 whole entry): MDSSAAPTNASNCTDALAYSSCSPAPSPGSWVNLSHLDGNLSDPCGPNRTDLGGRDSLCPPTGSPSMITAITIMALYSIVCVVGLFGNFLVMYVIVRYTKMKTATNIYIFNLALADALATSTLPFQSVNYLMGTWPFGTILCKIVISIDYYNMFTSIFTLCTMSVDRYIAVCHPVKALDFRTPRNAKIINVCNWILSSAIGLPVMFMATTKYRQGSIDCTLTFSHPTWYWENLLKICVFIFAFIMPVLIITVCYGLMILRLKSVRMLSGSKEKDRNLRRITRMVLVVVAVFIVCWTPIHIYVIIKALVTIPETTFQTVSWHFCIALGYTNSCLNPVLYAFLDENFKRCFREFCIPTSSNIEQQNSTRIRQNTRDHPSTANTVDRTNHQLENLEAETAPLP
# T2 sequence (P41143 whole entry): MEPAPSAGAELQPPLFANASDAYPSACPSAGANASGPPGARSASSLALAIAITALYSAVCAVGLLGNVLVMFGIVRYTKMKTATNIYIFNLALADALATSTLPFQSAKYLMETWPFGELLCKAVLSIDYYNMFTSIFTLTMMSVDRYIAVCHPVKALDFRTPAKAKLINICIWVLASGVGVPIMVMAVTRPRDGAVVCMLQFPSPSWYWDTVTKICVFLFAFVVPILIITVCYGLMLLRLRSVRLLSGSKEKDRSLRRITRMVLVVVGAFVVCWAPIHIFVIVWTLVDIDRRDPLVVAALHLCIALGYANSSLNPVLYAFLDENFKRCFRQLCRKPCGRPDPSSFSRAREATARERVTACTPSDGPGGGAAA
# T1 sequence (P41145 whole entry): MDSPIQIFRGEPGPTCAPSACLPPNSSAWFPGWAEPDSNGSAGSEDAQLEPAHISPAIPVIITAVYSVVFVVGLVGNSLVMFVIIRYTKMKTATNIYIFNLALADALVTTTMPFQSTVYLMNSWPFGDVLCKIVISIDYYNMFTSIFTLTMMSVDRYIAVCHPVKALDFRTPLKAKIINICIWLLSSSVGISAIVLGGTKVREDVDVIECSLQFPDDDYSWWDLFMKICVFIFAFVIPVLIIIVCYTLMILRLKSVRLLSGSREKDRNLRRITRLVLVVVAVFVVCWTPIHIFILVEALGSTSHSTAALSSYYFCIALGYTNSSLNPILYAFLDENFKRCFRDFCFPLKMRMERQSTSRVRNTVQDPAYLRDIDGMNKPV
substance,measurement,setting,value
YGGFYSYA,top-performing motif unique for receptor,[1]; library 2,KOR
YGGFYRLR,top-performing motif unique for receptor,[1]; library 2,KOR
SAWPLRRI,top-performing motif unique for receptor,[1]; library 1,KOR
YGGFSSRG,top-performing motif unique for receptor,[2]; library 2,DOR
SVPFLRRI,top-performing motif unique for receptor,[1]; library 1,KOR
YGGFYSRW,top-performing motif unique for receptor,[1]; library 2,KOR
YGMELRRI,receptor specificity of individually cloned isolates,[3],delta-specific
same,signaling of individually cloned isolates,[3],signaled strongly
same,top-performing motif unique for receptor,[2]; library 1,DOR
YGGFMVAT,top-performing motif unique for receptor,[4]; library 2,MOR
YGGFRCCA,top-performing motif unique for receptor,[4]; library 2,MOR
WWPDLRRI,top-performing motif unique for receptor,[2]; library 1,DOR
YGGFGGSG,top-performing motif unique for receptor,[2]; library 2,DOR
YGGFMNYP,top-performing motif unique for receptor,[4]; library 2,MOR
dynorphin A 1-17,activity,[5],showed activity
YGGFGSGR,top-performing motif unique for receptor,[2]; library 2,DOR
"GGGSGGGGSGGGSGGGGS [glycine-serine linker, glycine-serine linker, without peptide agonist, negative control]",activity of negative controls,[6],no activity
LVLLLRRI,top-performing motif unique for receptor,[4]; library 1,MOR
YGFDLRRI,top-performing motif unique for receptor,[2]; library 1,DOR
SHYVLRRI,top-performing motif unique for receptor,[1]; library 1,KOR
YQRFLRRI,top-performing motif unique for receptor,[1]; library 1,KOR
CDIQLRRI,top-performing motif unique for receptor,[1]; library 1,KOR
GLVNLRRI,top-performing motif unique for receptor,[4]; library 1,MOR
YGGFMGSV,top-performing motif unique for receptor,[4]; library 2,MOR
YGGFSSGL,top-performing motif unique for receptor,[2]; library 2,DOR
YGGFSSSG,top-performing motif unique for receptor,[2]; library 2,DOR
YGFDLLRI,receptor specificity of individually cloned isolates,[3],delta-specific
same,signaling of individually cloned isolates,[3],signaled strongly

# Reference: patent US20260308224A1, “METHODS AND COMPOSITIONS FOR DISPLAYING PEPTIDE LIBRARIES” (priority 2023, published 2026)
